In US10921324B2, “Compositions and methods related to the methylation of histone H1.0 protein” (Aelan Cell Technologies, Inc., priority 2016, dated 2021):
Ends that are not written are not given here.

Molecular target: T1, GLP methyltransferase (Homo sapiens, UniProt Q9H9B1)
T1 construct: purchased Cayman Chemical 10755
T1 sequence (Q9H9B1 1-1298): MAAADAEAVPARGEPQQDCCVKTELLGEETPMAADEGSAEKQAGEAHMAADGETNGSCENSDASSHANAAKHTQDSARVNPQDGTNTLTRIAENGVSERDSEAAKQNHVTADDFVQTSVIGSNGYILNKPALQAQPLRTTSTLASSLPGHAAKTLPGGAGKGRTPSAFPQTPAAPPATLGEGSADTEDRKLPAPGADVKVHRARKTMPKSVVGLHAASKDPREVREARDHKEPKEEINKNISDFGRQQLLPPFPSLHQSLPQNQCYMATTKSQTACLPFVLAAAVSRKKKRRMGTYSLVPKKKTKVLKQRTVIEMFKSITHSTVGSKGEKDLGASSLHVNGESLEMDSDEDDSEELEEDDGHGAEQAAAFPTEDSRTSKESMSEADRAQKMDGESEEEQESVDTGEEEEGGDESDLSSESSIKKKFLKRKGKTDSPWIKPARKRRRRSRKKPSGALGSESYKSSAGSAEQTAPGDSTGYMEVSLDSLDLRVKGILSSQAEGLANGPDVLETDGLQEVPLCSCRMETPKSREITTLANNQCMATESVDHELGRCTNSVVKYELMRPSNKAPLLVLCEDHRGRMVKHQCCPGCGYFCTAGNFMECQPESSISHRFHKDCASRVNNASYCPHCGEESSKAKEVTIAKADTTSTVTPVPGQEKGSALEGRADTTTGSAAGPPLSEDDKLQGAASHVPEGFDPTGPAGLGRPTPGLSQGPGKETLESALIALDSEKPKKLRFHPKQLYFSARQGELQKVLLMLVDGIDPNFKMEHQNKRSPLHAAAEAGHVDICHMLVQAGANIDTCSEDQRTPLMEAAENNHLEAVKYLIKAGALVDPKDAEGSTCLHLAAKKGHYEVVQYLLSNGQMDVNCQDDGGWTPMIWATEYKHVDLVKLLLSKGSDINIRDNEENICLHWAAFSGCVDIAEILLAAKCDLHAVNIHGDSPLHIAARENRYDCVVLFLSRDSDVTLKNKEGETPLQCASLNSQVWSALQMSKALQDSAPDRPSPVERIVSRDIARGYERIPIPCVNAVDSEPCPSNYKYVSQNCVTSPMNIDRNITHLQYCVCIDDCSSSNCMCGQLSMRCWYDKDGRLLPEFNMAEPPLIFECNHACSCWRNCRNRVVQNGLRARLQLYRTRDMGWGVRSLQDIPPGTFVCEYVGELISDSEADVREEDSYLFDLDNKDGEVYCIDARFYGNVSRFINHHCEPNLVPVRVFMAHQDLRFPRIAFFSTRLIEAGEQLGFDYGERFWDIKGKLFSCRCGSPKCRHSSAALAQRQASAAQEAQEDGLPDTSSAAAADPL
Assay: In vitro methylation of unmodified H1.0 peptide with GLP, products by LC-MS
Format: biochemical
Conditions: LC-MS spectral counts; 10U GLP, 3.2 mM S-Adenosyl-L-Methionine, 37° C. 1 hour
Procedure: In order to identify the precise sites of methylation by G9A and GLP methyltransferases on histone H1.0, in vitro methylation assays were performed and subsequently analyzed by Liquid Chromatography and High-resolution Mass Spectrometry (LC-MS) analysis. Methylation reactions were set up using either G9A methyltransferase (NEB, M0235S, Lot #0031201) or GLP methyltransferase (Cayman Chemical, 10755). The methyl donor in each reaction was unlabeled S-Adenosyl-L-Methionine (NEB, B9003S). […]
For the Liquid Chromatography and High-resolution Mass Spectrometry (LC-MS) analysis, samples were prepared as described above and about 1 μg o the product was injected onto a Thermo Scientific Easy nLC system configured with a 10 cm×100 um trap column and a 25 cm×100 um ID resolving column. […] This ensured optimal full-scan data for quantification. […]
Protein identification was performed using Thermo Scientific Proteome Discoverer version 1.4 (including Sequest and Percolator algorithms) using RefSeqHuman sequence database. […] Protein quantification was performed using Pinpoint version 1.4 software. The Pinpoint quantification workflow included importing the Proteome Discoverer .msf files as spectral libraries. Identified peptides were subsequently quantified in MS .raw files using the Pinpoint peak finding, chromatographic alignment and area calculation algorithms. […]

For “AKPVKASKPKKAKPVKPK (not fully specified (N-terminus); listed as Homo sapiens) [unmethylated H1.0 peptide, unmodified H1.0 peptide substrate for in vitro methylation]”, the “H1.0K180 dimethylated, % of all peptides” value was 96.6%.
